According to article PMC11676905:

What was measured:
[1] = biological target: rTBL-1 R130Q mutant lectin (Phaseolus acutifolius); test: SEC; ENrich SEC 650 column calibrated with gel filtration standard; 200 µL of sample at 10 mg/mL; 20 mM MES, 100 mM NaCl, pH 6.5; single peak at approximately 120 kDa
[2] = biological target: rTBL-1 R103Q mutant lectin (Phaseolus acutifolius); test: as above

| Substance | stoichiometry N [1] | stoichiometry N [2] |
| --- | --- | --- |
| rTBL-1 R130Q mutant lectin (natural protein) | 4 |  |
| rTBL-1 R103Q mutant lectin (natural protein) |  | 4 |
